# Source: IntAct's records for PubMed 25752541
# B1: Coiled-coil domain-containing protein 8 (Homo sapiens), Q9H0W5 (parent)
# chain: MLQIGEDVDYLLIPREVRLAGGVWRVISKPATKEAEFRERLTQFLEEEGRTLEDVARIMEKSTPHPPQPPKKPKEPRVRRRVQQMVTPPPRLVVGTYDSSNASDSEFSDFETSRDKSRQGPRRGKKVRKMPVSYLGSKFLGSDLESEDDEELVEAFLRRQEKQPSAPPARRRVNLPVPMFEDNLGPQLSKADRWREYVSQVSWGKLKRRVKGWAPRAGPGVGEARLASTAVESAGVSSAPEGTSPGDRLGNAGDVCVPQASPRRWRPKINWASFRRRRKEQTAPTGQGADIEADQGGEAADSQREEAIADQREGAAGNQRAGAPADQGAEAADNQREEAADNQRAGAPAEEGAEAADNQREEAADNQRAEAPADQRSQGTDNHREEAADNQRAEAPADQGSEVTDNQREEAVHDQRERAPAVQGADNQRAQARAGQRAEAAHNQRAGAPGIQEAEVSAAQGTTGTAPGARARKQVKTVRFQTPGRFSWFCKRRRAFWHTPRLPTLPKRVPRAGEARNLRVLRAEARAEAEQGEQEDQL
# partner: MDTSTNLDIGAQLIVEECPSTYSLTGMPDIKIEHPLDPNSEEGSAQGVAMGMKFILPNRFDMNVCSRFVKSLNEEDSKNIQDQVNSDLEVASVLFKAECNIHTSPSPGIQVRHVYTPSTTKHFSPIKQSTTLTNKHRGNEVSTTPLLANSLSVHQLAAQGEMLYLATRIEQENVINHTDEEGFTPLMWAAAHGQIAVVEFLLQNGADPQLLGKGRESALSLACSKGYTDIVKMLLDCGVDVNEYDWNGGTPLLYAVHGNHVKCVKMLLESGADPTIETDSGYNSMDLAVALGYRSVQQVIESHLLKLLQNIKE
# B2: Ankyrin repeat family A protein 2 (Homo sapiens), Q9H9E1 (parent)
# chain: B1 partner
# partner: B1 chain
# Variants of: B1
# Details: with anra2_human ANKRA2, Q9H9E1
row,effect of a mutation on the interaction,Variant
1,disrupting interaction strength,MLQIGEDVDYLLIPREVRLAGGVWRVISKPATKEAEFRERLTQFLEEEGRTLEDVARIMEKSTPHPPQPPKKPKEPRVRRRVQQMVTPPPRLVVGTYDSSNASDSEFSDFETSRDKSRQGPRRGKKVRKMPVSYLGSKFLGSDLESEDDEELVEAFLRRQEKQPSAPPARRRVNLPVPMFEDNLGPQLSKADRWREYVSQVSWGKLKRRVKGWAPRAGPGVGEARLASTAVESAGVSSAPEGTSPGDRLGNAGDVCVPQASPRRWRPKINWASFRRRRKEQTAPTGQGADIEADQGGEAADSQREEAIADQREGAAGNQRAGAPADQGAEAADNQREEAADNQRAGAPAEEGAEAADNQREEAADNQRAEAPADQRSQGTDNHREEAADNQRAEAPADQGSEVTDNQREEAVHDQRERAPAVQGADNQRAQARAGQRAEAAHNQRAGAPGIQEAEVSAAQGTTGTAPGARARKQVKTVRFQTPGRFSWFCKRRRAFWHTPRLATLPKRVPRAGEARNLRVLRAEARAEAEQGEQEDQL [P503A]
2,disrupting interaction strength,MLQIGEDVDYLLIPREVRLAGGVWRVISKPATKEAEFRERLTQFLEEEGRTLEDVARIMEKSTPHPPQPPKKPKEPRVRRRVQQMVTPPPRLVVGTYDSSNASDSEFSDFETSRDKSRQGPRRGKKVRKMPVSYLGSKFLGSDLESEDDEELVEAFLRRQEKQPSAPPARRRVNLPVPMFEDNLGPQLSKADRWREYVSQVSWGKLKRRVKGWAPRAGPGVGEARLASTAVESAGVSSAPEGTSPGDRLGNAGDVCVPQASPRRWRPKINWASFRRRRKEQTAPTGQGADIEADQGGEAADSQREEAIADQREGAAGNQRAGAPADQGAEAADNQREEAADNQRAGAPAEEGAEAADNQREEAADNQRAEAPADQRSQGTDNHREEAADNQRAEAPADQGSEVTDNQREEAVHDQRERAPAVQGADNQRAQARAGQRAEAAHNQRAGAPGIQEAEVSAAQGTTGTAPGARARKQVKTVRFQTPGRFSWFCKRRRAFWHTPRLPALPKRVPRAGEARNLRVLRAEARAEAEQGEQEDQL [T504A]

# Variants of: B2
# Details: with ccdc8_human CCDC8, Q9H0W5
row,effect of a mutation on the interaction,Variant
1,disrupting interaction strength,MDTSTNLDIGAQLIVEECPSTYSLTGMPDIKIEHPLDPNSEEGSAQGVAMGMKFILPNRFDMNVCSRFVKSLNEEDSKNIQDQVNSDLEVASVLFKAECNIHTSPSPGIQVRHVYTPSTTKHFSPIKQSTTLTNKHRGNEVSTTPLLANSLSVHQLAAQGEMLYLATRIEQENVINHTDEEGFTPLMAAAAHGQIAVVEFLLQNGADPQLLGKGRESALSLACSKGYTDIVKMLLDCGVDVNEYDWNGGTPLLYAVHGNHVKCVKMLLESGADPTIETDSGYNSMDLAVALGYRSVQQVIESHLLKLLQNIKE [W188A]
2,with no effect,MDTSTNLDIGAQLIVEECPSTYSLTGMPDIRIEHPLDPNSEEGSAQGVAMGMKFILPNRFDMNVCSRFVKSLNEEDSKNIQDQVNSDLEVASVLFKAECNIHTSPSPGIQVRHVYTPSTTKHFSPIKQSTTLTNKHRGNEVSTTPLLANSLSVHQLAAQGEMLYLATRIEQENVINHTDEEGFTPLMWAAAHGQIAVVEFLLQNGADPQLLGKGRESALSLACSKGYTDIVKMLLDCGVDVNEYDWNGGTPLLYAVHGNHVKCVKMLLESGADPTIETDSGYNSMDLAVALGYRSVQQVIESHLLKLLQNIKE [K31R]
